Target: T1, pentapeptide Gln-Pro-Gln-Gln-Pro
T1 chain: QPQQP

B1: FvePro4 (protein)
chain: ASRLSSRRWASSENMTKLDTTSRLNRLRGLMKERNVQIYIVPSEDSHSSEYIADCDARRAYISGFTGSAGCAVVTLESAALATDGRYFNQATSQLDSNWTLLKQGLQDVPTWQDWSAEQSSGGKNVGVDPTLISGSTAKNLAEKIRKNGGAELLPVDGNLVDLVWGDERPSRPSEQVIIQPDELAGESVLNKLTKVRQELEKKHSPGFLVSMLDEIAWLFNLRGNDIPYNPVFFAYATVTPDAAKLYIDEAKLDDKCRSHLTSNKVDIKPYETIFDDAQALHAAHAAKSKSGDKVPTGNFLISNKGSWALKRALGGDSSVDEIRSLIGDAKAIKTEAELKGMRDCHVRDGAALIQYFAWLEDQLVNKKATLDEVQAADKLEELRKVKKDFVGLSFPTISSTGANAAIIHYGPERGNCATIDPEAIYLCDSGAQYRDGTTDTTRTLHFGKPTEAEREAYTLVLKGHISLDQAIFPKGTTGFALDSLARQHLWKNGLDYRHGTGHGVGSFLNVHEGPIGIGTRVQYAEVALAPGNVLSNEPGYYEDGKYGIRIENMVLVKEVKTKHSFGDKPFLGFEYVTLVPYCRNLIDTTLLTSEEKEWLNTYNAKVLEKTQEYFEGDDVTLAWLKRETQHVE
pentapeptide hydrolysis (ninhydrin reaction, A570): all purified proteases are capable of hydrolyzing pentapeptide Gln-Pro-Gln-Gln-Pro

Reference: patent US20220136027
